From US20260167699A1 (Chugai, published 2026)

T1: FcγRIIa(R) extracellular domain, C-terminal His tag (human, UniProt P12318 34-217)
T1 construct: extracellular domain; also called 2aR
T1 sequence: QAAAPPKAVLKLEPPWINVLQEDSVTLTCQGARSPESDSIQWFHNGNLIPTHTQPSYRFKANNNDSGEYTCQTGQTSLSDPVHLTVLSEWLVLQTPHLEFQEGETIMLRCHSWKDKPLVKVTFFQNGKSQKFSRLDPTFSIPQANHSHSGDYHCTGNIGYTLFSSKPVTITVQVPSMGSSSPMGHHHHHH

T2: FcγRIIa(H) extracellular domain, C-terminal His tag (human, UniProt P12318 34-217)
T2 construct: extracellular domain; also called 2aH
T2 sequence: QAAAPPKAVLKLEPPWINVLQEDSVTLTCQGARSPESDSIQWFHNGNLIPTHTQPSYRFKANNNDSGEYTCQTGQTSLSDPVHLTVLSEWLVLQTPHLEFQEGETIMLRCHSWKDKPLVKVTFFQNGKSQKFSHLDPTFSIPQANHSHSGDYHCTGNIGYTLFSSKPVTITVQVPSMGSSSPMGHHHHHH

T3: FcγRIIb extracellular domain, C-terminal His tag (human, UniProt P31994 43-217)
T3 construct: extracellular domain; also called 2b
T3 sequence: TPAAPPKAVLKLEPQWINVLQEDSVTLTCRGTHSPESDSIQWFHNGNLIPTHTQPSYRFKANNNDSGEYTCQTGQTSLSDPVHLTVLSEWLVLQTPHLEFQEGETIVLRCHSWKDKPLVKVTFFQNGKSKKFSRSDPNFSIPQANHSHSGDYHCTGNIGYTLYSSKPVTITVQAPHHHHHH


Tests used:
Experiment in all cases: SPR; He Ab vs HeCon Ab (GpH7-A5/GpH7-B3/GpL16-k0)=100;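 note: surface plasmon resonance at 25 °C with the test antibody captured on a sensor chip via antigenic peptide, protein L or protein A/G and FcγR flowed over as analyte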
[1] = biological target: T4, FcγRIa extracellular domain, C-terminal His tag (human, UniProt P12314 16-292)
T4 construct: extracellular domain; also called 1a
T4 sequence (P12314 other isoform, or with tags, fused parts or gaps): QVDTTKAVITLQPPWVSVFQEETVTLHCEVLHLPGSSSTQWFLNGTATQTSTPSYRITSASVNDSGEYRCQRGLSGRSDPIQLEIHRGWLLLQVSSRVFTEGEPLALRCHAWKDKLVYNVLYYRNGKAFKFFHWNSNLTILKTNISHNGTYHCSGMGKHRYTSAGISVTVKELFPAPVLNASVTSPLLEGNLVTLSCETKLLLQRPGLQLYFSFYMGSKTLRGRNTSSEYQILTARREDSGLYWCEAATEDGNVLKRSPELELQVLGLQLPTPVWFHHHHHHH

[2] = biological target: T1, FcγRIIa(R) extracellular domain, …
[3] = biological target: T2, FcγRIIa(H) extracellular domain, …
[4] = biological target: T3, FcγRIIb extracellular domain, …
[5] = biological target: T5, FcγRIIIa extracellular domain, C-terminal His tag (human, UniProt P08637 17-208)
T5 construct: extracellular domain; also called 3a
T5 sequence (P08637 other isoform, or with tags, fused parts or gaps): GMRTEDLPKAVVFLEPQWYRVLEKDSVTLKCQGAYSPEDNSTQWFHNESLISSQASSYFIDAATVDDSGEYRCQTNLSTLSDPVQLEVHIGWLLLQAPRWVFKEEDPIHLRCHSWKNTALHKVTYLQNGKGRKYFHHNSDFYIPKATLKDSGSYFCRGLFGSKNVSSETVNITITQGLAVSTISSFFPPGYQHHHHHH

| Binder | He/Con 1a [1] [%] | He/Con 2aR [2] [%] | He/Con 2aH [3] [%] | He/Con 2b [4] [%] | He/Con 3a [5] [%] |
| --- | --- | --- | --- | --- | --- |
| GpH7-A5/GpH7-B3 variant Y296_03V/GpL16-k0 (antibody, human IgG1, kappa, heterodimerized IgG1, one H chain mutated; also called He Ab; copies: 1 + 1 + 2) heavy 1: not shown heavy 2: not shown light: DIVMTQSPLSLPVTPGEPASISCQASESLVHSNRNTYLHWYLQKPGQSPQLLIYKVSNRFSGVPDRFSGSGSGTDFTLKISRVEAEDVGVYYCSQNTHVPPTFGQGTKVEIERTVAAPSVFIFPPSDEQLKSGTASVVCLLNNFYPREAKVQWKVDNALQSGNSQESVTEQDSKDSTYSLSSTLTLSKADYEKHKVYACEVTHQGLSSPVTKSFNRGEC | 101 | 92 | 86.9 | 80.4 | 69.1 |
| GpH7-A5/GpH7-B3 variant Y296_07I/GpL16-k0 (antibody, human IgG1, kappa, heterodimerized IgG1, one H chain mutated; also called He Ab; copies: 1 + 1 + 2) heavy 1: not shown heavy 2: not shown light: DIVMTQSPLSLPVTPGEPASISCQASESLVHSNRNTYLHWYLQKPGQSPQLLIYKVSNRFSGVPDRFSGSGSGTDFTLKISRVEAEDVGVYYCSQNTHVPPTFGQGTKVEIERTVAAPSVFIFPPSDEQLKSGTASVVCLLNNFYPREAKVQWKVDNALQSGNSQESVTEQDSKDSTYSLSSTLTLSKADYEKHKVYACEVTHQGLSSPVTKSFNRGEC | 101 | 96.7 | 92.7 | 85.5 | 75.8 |
| GpH7-A5/GpH7-B3 variant Y296_12R/GpL16-k0 (antibody, human IgG1, kappa, heterodimerized IgG1, one H chain mutated; also called He Ab; copies: 1 + 1 + 2) heavy 1: not shown heavy 2: not shown light: DIVMTQSPLSLPVTPGEPASISCQASESLVHSNRNTYLHWYLQKPGQSPQLLIYKVSNRFSGVPDRFSGSGSGTDFTLKISRVEAEDVGVYYCSQNTHVPPTFGQGTKVEIERTVAAPSVFIFPPSDEQLKSGTASVVCLLNNFYPREAKVQWKVDNALQSGNSQESVTEQDSKDSTYSLSSTLTLSKADYEKHKVYACEVTHQGLSSPVTKSFNRGEC | 103 | 95.3 | 89.1 | 80.5 | 66.5 |
| GpH7-A5/GpH7-B3 variant Y296_19Q/GpL16-k0 (antibody, human IgG1, kappa, heterodimerized IgG1, one H chain mutated; also called He Ab; copies: 1 + 1 + 2) heavy 1: not shown heavy 2: not shown light: DIVMTQSPLSLPVTPGEPASISCQASESLVHSNRNTYLHWYLQKPGQSPQLLIYKVSNRFSGVPDRFSGSGSGTDFTLKISRVEAEDVGVYYCSQNTHVPPTFGQGTKVEIERTVAAPSVFIFPPSDEQLKSGTASVVCLLNNFYPREAKVQWKVDNALQSGNSQESVTEQDSKDSTYSLSSTLTLSKADYEKHKVYACEVTHQGLSSPVTKSFNRGEC | 108 | 97.9 | 94.3 | 90.5 | 71.4 |
| GpH7-A5/GpH7-B3 variant Y296_04F/GpL16-k0 (antibody, human IgG1, kappa, heterodimerized IgG1, one H chain mutated; also called He Ab; copies: 1 + 1 + 2) heavy 1: not shown heavy 2: not shown light: DIVMTQSPLSLPVTPGEPASISCQASESLVHSNRNTYLHWYLQKPGQSPQLLIYKVSNRFSGVPDRFSGSGSGTDFTLKISRVEAEDVGVYYCSQNTHVPPTFGQGTKVEIERTVAAPSVFIFPPSDEQLKSGTASVVCLLNNFYPREAKVQWKVDNALQSGNSQESVTEQDSKDSTYSLSSTLTLSKADYEKHKVYACEVTHQGLSSPVTKSFNRGEC | 101 | 105 | 97.8 | 101 | 79.5 |
| GpH7-A5/GpH7-B3 variant Y296_06M/GpL16-k0 (antibody, human IgG1, kappa, heterodimerized IgG1, one H chain mutated; also called He Ab; copies: 1 + 1 + 2) heavy 1: not shown heavy 2: not shown light: DIVMTQSPLSLPVTPGEPASISCQASESLVHSNRNTYLHWYLQKPGQSPQLLIYKVSNRFSGVPDRFSGSGSGTDFTLKISRVEAEDVGVYYCSQNTHVPPTFGQGTKVEIERTVAAPSVFIFPPSDEQLKSGTASVVCLLNNFYPREAKVQWKVDNALQSGNSQESVTEQDSKDSTYSLSSTLTLSKADYEKHKVYACEVTHQGLSSPVTKSFNRGEC | 101 | 96.8 | 94.2 | 89 | 74.6 |
| GpH7-A5/GpH7-B3 variant Y296_10E/GpL16-k0 (antibody, human IgG1, kappa, heterodimerized IgG1, one H chain mutated; also called He Ab; copies: 1 + 1 + 2) heavy 1: not shown heavy 2: not shown light: DIVMTQSPLSLPVTPGEPASISCQASESLVHSNRNTYLHWYLQKPGQSPQLLIYKVSNRFSGVPDRFSGSGSGTDFTLKISRVEAEDVGVYYCSQNTHVPPTFGQGTKVEIERTVAAPSVFIFPPSDEQLKSGTASVVCLLNNFYPREAKVQWKVDNALQSGNSQESVTEQDSKDSTYSLSSTLTLSKADYEKHKVYACEVTHQGLSSPVTKSFNRGEC | 102 | 98.2 | 94 | 99.4 | 76.8 |
| GpH7-A5/GpH7-B3 variant Y296_08L/GpL16-k0 (antibody, human IgG1, kappa, heterodimerized IgG1, one H chain mutated; also called He Ab; copies: 1 + 1 + 2) heavy 1: not shown heavy 2: not shown light: DIVMTQSPLSLPVTPGEPASISCQASESLVHSNRNTYLHWYLQKPGQSPQLLIYKVSNRFSGVPDRFSGSGSGTDFTLKISRVEAEDVGVYYCSQNTHVPPTFGQGTKVEIERTVAAPSVFIFPPSDEQLKSGTASVVCLLNNFYPREAKVQWKVDNALQSGNSQESVTEQDSKDSTYSLSSTLTLSKADYEKHKVYACEVTHQGLSSPVTKSFNRGEC | 101 | 93.7 | 86.9 | 83.5 | 72.4 |
| GpH7-A5/GpH7-B3 variant Y296_16H/GpL16-k0 (antibody, human IgG1, kappa, heterodimerized IgG1, one H chain mutated; also called He Ab; copies: 1 + 1 + 2) heavy 1: not shown heavy 2: not shown light: DIVMTQSPLSLPVTPGEPASISCQASESLVHSNRNTYLHWYLQKPGQSPQLLIYKVSNRFSGVPDRFSGSGSGTDFTLKISRVEAEDVGVYYCSQNTHVPPTFGQGTKVEIERTVAAPSVFIFPPSDEQLKSGTASVVCLLNNFYPREAKVQWKVDNALQSGNSQESVTEQDSKDSTYSLSSTLTLSKADYEKHKVYACEVTHQGLSSPVTKSFNRGEC | 103 | 100 | 101 | 93.5 | 69.1 |
| GpH7-A5/GpH7-B3 variant Y296_14T/GpL16-k0 (antibody, human IgG1, kappa, heterodimerized IgG1, one H chain mutated; also called He Ab; copies: 1 + 1 + 2) heavy 1: not shown heavy 2: not shown light: DIVMTQSPLSLPVTPGEPASISCQASESLVHSNRNTYLHWYLQKPGQSPQLLIYKVSNRFSGVPDRFSGSGSGTDFTLKISRVEAEDVGVYYCSQNTHVPPTFGQGTKVEIERTVAAPSVFIFPPSDEQLKSGTASVVCLLNNFYPREAKVQWKVDNALQSGNSQESVTEQDSKDSTYSLSSTLTLSKADYEKHKVYACEVTHQGLSSPVTKSFNRGEC | 102 | 98.6 | 97.2 | 89.4 | 60.7 |
| GpH7-A5/GpH7-B3 variant Y296_11K/GpL16-k0 (antibody, human IgG1, kappa, heterodimerized IgG1, one H chain mutated; also called He Ab; copies: 1 + 1 + 2) heavy 1: not shown heavy 2: not shown light: DIVMTQSPLSLPVTPGEPASISCQASESLVHSNRNTYLHWYLQKPGQSPQLLIYKVSNRFSGVPDRFSGSGSGTDFTLKISRVEAEDVGVYYCSQNTHVPPTFGQGTKVEIERTVAAPSVFIFPPSDEQLKSGTASVVCLLNNFYPREAKVQWKVDNALQSGNSQESVTEQDSKDSTYSLSSTLTLSKADYEKHKVYACEVTHQGLSSPVTKSFNRGEC | 102 | 90.3 | 83.7 | 73.8 | 53.3 |
| GpH7-A5/GpH7-B3 variant Y296_20W/GpL16-k0 (antibody, human IgG1, kappa, heterodimerized IgG1, one H chain mutated; also called He Ab; copies: 1 + 1 + 2) heavy 1: not shown heavy 2: not shown light: DIVMTQSPLSLPVTPGEPASISCQASESLVHSNRNTYLHWYLQKPGQSPQLLIYKVSNRFSGVPDRFSGSGSGTDFTLKISRVEAEDVGVYYCSQNTHVPPTFGQGTKVEIERTVAAPSVFIFPPSDEQLKSGTASVVCLLNNFYPREAKVQWKVDNALQSGNSQESVTEQDSKDSTYSLSSTLTLSKADYEKHKVYACEVTHQGLSSPVTKSFNRGEC | 107 | 105 | 95.4 | 105 | 127 |
| GpH7-A5/GpH7-B3 variant Y296_13S/GpL16-k0 (antibody, human IgG1, kappa, heterodimerized IgG1, one H chain mutated; also called He Ab; copies: 1 + 1 + 2) heavy 1: not shown heavy 2: not shown light: DIVMTQSPLSLPVTPGEPASISCQASESLVHSNRNTYLHWYLQKPGQSPQLLIYKVSNRFSGVPDRFSGSGSGTDFTLKISRVEAEDVGVYYCSQNTHVPPTFGQGTKVEIERTVAAPSVFIFPPSDEQLKSGTASVVCLLNNFYPREAKVQWKVDNALQSGNSQESVTEQDSKDSTYSLSSTLTLSKADYEKHKVYACEVTHQGLSSPVTKSFNRGEC | 102 | 97.5 | 96.1 | 87.5 | 58.1 |
| GpH7-A5/GpH7-B3 variant Y296_18N/GpL16-k0 (antibody, human IgG1, kappa, heterodimerized IgG1, one H chain mutated; also called He Ab; copies: 1 + 1 + 2) heavy 1: not shown heavy 2: not shown light: DIVMTQSPLSLPVTPGEPASISCQASESLVHSNRNTYLHWYLQKPGQSPQLLIYKVSNRFSGVPDRFSGSGSGTDFTLKISRVEAEDVGVYYCSQNTHVPPTFGQGTKVEIERTVAAPSVFIFPPSDEQLKSGTASVVCLLNNFYPREAKVQWKVDNALQSGNSQESVTEQDSKDSTYSLSSTLTLSKADYEKHKVYACEVTHQGLSSPVTKSFNRGEC | 102 | 99.6 | 101 | 92.8 | 67.9 |
| GpH7-A5/GpH7-B3 variant Y296_09D/GpL16-k0 (antibody, human IgG1, kappa, heterodimerized IgG1, one H chain mutated; also called He Ab; copies: 1 + 1 + 2) heavy 1: not shown heavy 2: not shown light: DIVMTQSPLSLPVTPGEPASISCQASESLVHSNRNTYLHWYLQKPGQSPQLLIYKVSNRFSGVPDRFSGSGSGTDFTLKISRVEAEDVGVYYCSQNTHVPPTFGQGTKVEIERTVAAPSVFIFPPSDEQLKSGTASVVCLLNNFYPREAKVQWKVDNALQSGNSQESVTEQDSKDSTYSLSSTLTLSKADYEKHKVYACEVTHQGLSSPVTKSFNRGEC | 103 | 101 | 102 | 100 | 89 |
